Source: IntAct's records for PubMed 29039417

B1: Isoform 2 of Bardet-Biedl syndrome 7 protein (Homo sapiens), Q8IWZ6-2 (parent)
chain: MDLILNRMDYLQVGVTSQKTMKLIPASRHRATQKVVIGDHDGVVMCFGMKKGEAAAVFKTLPGPKIARLELGGVINTPQEKIFIAAASEIRGFTKRGKQFLSFETNLTESIKAMHISGSDLFLSASYIYNHYCDCKDQHYYLSGDKINDVICLPVERLSRITPVLACQDRVLRVLQGSDVMYAVEVPGPPTVLALHNGNGGDSGEDLLFGTSDGKLALIQITTSKPVRKWEIQNEKKRGGILCIDSFDIVGDGVKDLLVGRDDGMVEVYSFDNANEPVLRFDQMLSESVTSIQGGCVGKDSYDEIVVSTYSGWVTGLTTEPIHKESGPGEELKINQEMQNKISSLRNELEHLQYKVLQERENYQQSSQSSKAKSAVPSFGINDKFTLNKDDASYSLILEVQTAIDNVLIQSDVPIDLLDVDKNSAVVSFSSCDSESNDNFLLATYRCQADTTRLELKIRSIEGQYGTLQAYVTPRIQPKTCQVRQYHIKPLSLHQRTHFIDHDRPMNTLTLTGQFSFAEVHSWVVFCLPEVPEKPPAGECVTFYFQNTFLDTQLESTYRKGEGVFKSDNISTISILKDVLSKEATKRKINLNISYEINEVSVKHTLKLIHPKLEYQLLLAKKVQLIDALKELQIHEGNTNFLIPEYHCILEEADHLQEEYKKQPAHLERLYG
partner: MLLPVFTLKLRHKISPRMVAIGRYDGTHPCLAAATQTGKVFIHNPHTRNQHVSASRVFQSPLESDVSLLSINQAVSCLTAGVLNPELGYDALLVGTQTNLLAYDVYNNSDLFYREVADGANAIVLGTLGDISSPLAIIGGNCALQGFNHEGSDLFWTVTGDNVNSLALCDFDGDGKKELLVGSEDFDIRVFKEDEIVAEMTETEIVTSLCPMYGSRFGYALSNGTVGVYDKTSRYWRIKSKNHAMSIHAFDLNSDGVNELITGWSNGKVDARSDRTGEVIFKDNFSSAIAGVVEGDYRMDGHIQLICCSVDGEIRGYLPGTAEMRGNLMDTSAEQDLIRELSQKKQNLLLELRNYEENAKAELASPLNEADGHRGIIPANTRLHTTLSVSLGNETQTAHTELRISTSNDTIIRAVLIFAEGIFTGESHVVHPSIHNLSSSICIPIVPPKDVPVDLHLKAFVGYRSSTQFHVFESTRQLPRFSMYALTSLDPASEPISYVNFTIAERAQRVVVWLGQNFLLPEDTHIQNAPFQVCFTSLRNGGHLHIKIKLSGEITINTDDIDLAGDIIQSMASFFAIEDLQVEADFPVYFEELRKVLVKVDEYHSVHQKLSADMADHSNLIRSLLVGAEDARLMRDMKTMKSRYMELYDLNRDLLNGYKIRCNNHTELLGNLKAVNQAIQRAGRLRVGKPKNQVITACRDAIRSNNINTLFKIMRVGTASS

Variants of: B1
Settings: with bbs2_human BBS2, Q9BXC9

Variant | effect of a mutation on the interaction
D654A | with no effect
D654E | with no effect
D654K | with no effect
E658K | with no effect
E658A | with no effect
K612E | with no effect
K612A | with no effect
C648A | with no effect
C648E | with no effect
C648K | with no effect
K607A | with no effect
K607E | with no effect
I634A | with no effect
I634K | with no effect
I634E | with no effect
T639A | with no effect
T639E | with no effect
T639K | with no effect
D627K | with no effect
D627E | with no effect
D627A | with no effect
A653K | with no effect
A653E | with no effect
A628K | with no effect

Variant | effect of a mutation on the interaction
A628E | with no effect
I626A | with no effect
I626K | with no effect
I626E | with no effect
E631K | with no effect
E631A | with no effect
E645A | with no effect
E645K | with no effect
E614K | with no effect
E614A | disrupting interaction strength
L650E | with no effect
L650K | with no effect
L650A | with no effect
L608K | with no effect
L608E | with no effect
L608A | with no effect
Q616D | disrupting interaction strength
Q616A | with no effect
Q616E | with no effect
Q616K | with no effect
L656E | with no effect
L656K | with no effect
L656A | with no effect
L625E | with no effect

Variant | effect of a mutation on the interaction
L625A | with no effect
L625K | with no effect
N598K | with no effect
N598E | with no effect
N598A | with no effect
K622A | with no effect
K622E | with no effect
Q657A | with no effect
Q657E | with no effect
Q657K | with no effect
Y595E | with no effect
Y595K | with no effect
H635K | with no effect
H635A | with no effect
H635E | with no effect
H610A | with no effect
H610E | with no effect
H610K | with no effect
P644A | with no effect
P644K | with no effect
P644E | with no effect
E599K | with no effect
E599A | with no effect
L606E | with no effect

Variant | effect of a mutation on the interaction
L606A | with no effect
L606K | with no effect
L617A | with no effect
L617K | with no effect
L617E | with no effect
K603A | with no effect
K603E | with no effect
E651A | with no effect
E651K | with no effect
L613K | with no effect
L613A | with no effect
L613E | with no effect
I643K | with no effect
I643A | with no effect
I643E | with no effect
I609E | with no effect
I609K | with no effect
I609A | with no effect
G637A | with no effect
G637E | with no effect
G637K | with no effect
L619K | with no effect
L619E | with no effect
L619A | with no effect

Variant | effect of a mutation on the interaction
L642E | with no effect
L642K | with no effect
L642A | with no effect
Y660K | with no effect
Y660E | with no effect
Y660A | with no effect
K661E | with no effect
K661A | with no effect
V600A | with no effect
V600E | with no effect
V600K | with no effect
I649K | with no effect
I649A | with no effect
I649E | with no effect
Q633K | with no effect
Q633E | with no effect
Q633A | with no effect
Y646E | with no effect
Y646K | with no effect
Y646A | with no effect
F641K | with no effect
F641E | with no effect
F641A | with no effect
E636A | with no effect

Variant | effect of a mutation on the interaction
E636K | with no effect
I597A | with no effect
I597K | with no effect
I597E | with no effect
H647K | with no effect
H647E | with no effect
H647A | with no effect
V602A | with no effect
V602E | with no effect
V602K | with no effect
L632A | with no effect
L632K | with no effect
L632E | with no effect
P611K | with no effect
P611A | with no effect
P611E | with no effect
N640A | with no effect
N640K | with no effect
N640E | with no effect
V623K | with no effect
V623A | with no effect
V623E | with no effect
L629E | with no effect
L629K | with no effect

Variant | effect of a mutation on the interaction
L629A | with no effect
N638E | with no effect
N638A | with no effect
N638K | with no effect
Q624L | disrupting interaction strength
Q624A | with no effect
Q624E | with no effect
Q624K | with no effect
Q624Y | disrupting interaction strength
Q624S | disrupting interaction strength
L618E | with no effect
L618A | with no effect
L618K | with no effect
H655K | with no effect
H655A | with no effect
H655E | with no effect
H604K | with no effect
H604A | with no effect
H604E | with no effect
S601K | with no effect
S601E | with no effect
S601A | with no effect
K662A | with no effect
Y615A | with no effect

Variant | effect of a mutation on the interaction
Y615K | with no effect
Y615E | with no effect
A620K | with no effect
A620E | with no effect
E596K | with no effect
E596A | with no effect
E659K | with no effect
E659A | with no effect
K630E | with no effect
K630A | with no effect
E652K | with no effect
E652A | with no effect
T605E | with no effect
T605A | with no effect
T605K | with no effect
K621A | with no effect
K621E | with no effect
